Assay results from the nanobody polyreactivity screen of Harvey et al. (2022).

Experiment: yeast display, Sf9 membrane polyspecificity reagent, FACS + sequencing; frameworks hold sequencing errors
In short: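 Polyreactivity labels are assigned by the sorting gate from which each nanobody was recovered. The gates were low and high (top ~1%), set on anti-HA fluorescence for expression and streptavidin fluorescence for reagent binding. Before sorting, galactose-induced (36–48 hours) yeast display cells were stained for 1 hour at 4 °C with 10% biotinylated, detergent-solubilized Sf9 membrane reagent.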

Sequence: QVQLVESGGGLVQAGGSLRLICAASGFTFRNNAMGWYRQAPGKERELVARITFRGGSTYYADSVKGSFTISRDNAKNTVYLQMNSLNPEHTAVYYCAVDWLSVTSTIKFVMDYWGQGTQVTVSS
- polyreactivity (PSR sort gate): low polyreactivity

Sequence: QVQLVESGGGLVQAGGSLRLICAASGFTFRVYSMGWYRQAPGKEREFVASISWTGDTTYYADSVKGRFTISRDNAKNTVYLQMNSLKPEDTEVYYCAVDTILGYDYWGQVTQVTVSS
- polyreactivity (PSR sort gate): low polyreactivity

Sequence: QVQLVESGGGLVQAGGSLRLICAASGFTFYIYAMGWYRQAPGKERELVAAINFRGGSTYYADSVKGRFTLSRDNAKNTVYLQMNSLKPEDTAVYYCAAVPRTYSGYYYWGQGTKVTVSS
- polyreactivity (PSR sort gate): high polyreactivity

Sequence: QVQLVESGGGLVQAGGSLRLICAASGFTIGPYAMGWSRQAPGKERELVAAITIRGGSTYADSVKGRFTISRDNAKNTVYFQMNSLKTEDTAVSYCATVRALEYNYWGQGTQVTVSS
- polyreactivity (PSR sort gate): low polyreactivity

Sequence: QVQLVESGGGLVQAGGSLRLICAASGFTIVPNAMGWYRQAPGKERELVAAISRSTGGTYYADSVKGRFTISRDNAKNTVYLQMNSLKPEDTAVYYCAAEYWYWTYGMDYWGQGTQVTVSS
- polyreactivity (PSR sort gate): high polyreactivity

Sequence: QVQLVESGGGLVQAGGSLRLICAASGFTIWWYAMGWYRQAPGKERELVATITSGGRTYYADSVKGRFTISRDNAKNTVYLQMNSLKPEDTAVYYCAAESEVGYVYDPMYYLGQGTQVTVSS
- polyreactivity (PSR sort gate): high polyreactivity

Sequence: QVQLVESGGGLVQAGGSLRLICAASGGIFATYAMGWYRQAPGKEMELVAAITKRGGSTYYADSVKGRFTISRDNAKNTVYLQMNSLTPEDTAVYYCAAKGYRWFRLGGYYFKFDYWGQGTQVTVSS
- polyreactivity (PSR sort gate): high polyreactivity

Sequence: QVQLVESGGGLVQAGGSLRLICAASGIIFDGNAMGWYRQAPGKERELVASITSDSSTNYADSVKGRFTISRDNAKNTVYLQMNSLKPEDTAVYYCAADHWIAPRRDYWGQGTQVTVSS
- polyreactivity (PSR sort gate): low polyreactivity

Sequence: QVQLVESGGGLVQAGGSLRLICAASGIIFGGYDMGWYRQAPGKERELVAGIRSGGSTYYADSVKGRFTISRDNAKNTVYLQMNSLKPEDTAVYYCAKYVPIPYYSYLFGSYDYWGQGTQVTVSS
- polyreactivity (PSR sort gate): low polyreactivity

Sequence: QVQLVESGGGLVQAGGSLRLICAASGIIFSSNAMGWSRQAPGKERELVAAISNTGRTNYADSVKGRFTISRDNAKNTVYLQLNSLKPEDTAVYYCAARLSRRYYSYYYWGQGTQVTVSS
- polyreactivity (PSR sort gate): high polyreactivity

Sequence: QVQLVESGGGLVQAGGSLRLICAASGIIFTYNAMGWYRQAPGKERELVAAINGGSSTNYADSVKGRFTISRDNAKNTVYLQMNSLKPEDTAVYDCAADVIPDGVKKPRMYYWGQGTQVTVSS
- polyreactivity (PSR sort gate): low polyreactivity

Sequence: QVQLVESGGGLVQAGGSLRLICAASGIIFVPNAMGWYSQAPGKERELVAAIDRGGGTTYADSVKGRFTISRDNAKNTVYLQMNSLKPEDTAVYYCAAAWGVGPDQGHDYWGQGTQVTVSS
- polyreactivity (PSR sort gate): low polyreactivity

Sequence: QVQLVESGGGLVQAGGSLRLICAASGITFAWYAMGWYRQAPGKERELVAAIDDRGGSTYYADSVKWRFTISRDNAKNTVYLQMYSLKPEDTAVYYCNADTPSYEPYRLDYLGQGTQVTVSS
- polyreactivity (PSR sort gate): low polyreactivity

Sequence: QVQLVESGGGLVQAGGSLRLICAASGITFNKYSMGWYRQAPGKERELVAAISSRGCSTYYADSVKGRFTISRDNAKNTVYLQMNSLKPEYTAVYYCAAERGTTYAYDYWGQGTQVTVSS
- polyreactivity (PSR sort gate): high polyreactivity

Sequence: QVQLVESGGGLVQAGGSLRLICAASGITFTGYAMGWYRQAPGKERELVAAITRRGGRTYYADSVKGRFTISRDNAKNTVYLQMNSLKPEDTAVYYCARDNGSPYHYYYWGQGTQVTVSS
- polyreactivity (PSR sort gate): high polyreactivity

Sequence: QVQLVESGGGLVQAGGSLRLICAASGITFYYYAMGWYRQAPGKERELVAAITFTGGSTYYADSVKGRFTISRDNAKNTVYLQMNSLKPEDTAVYYCNRLGPLGDQQQYDYWGQGTQVTVSS
- polyreactivity (PSR sort gate): low polyreactivity

Sequence: QVQLVESGGGLVQAGGSLRLICAASGLIFWGYAMGWYRQAPGKERELVAAISSSGGSTYYADSVKGRFTISRDNAKNTVYLQINSLKPEDTAVYYCNADYTYYPGYDYWGQGTLVTVSS
- polyreactivity (PSR sort gate): low polyreactivity
